System: K4 kissing-loop RNA reporter
Assay: apparent KD of K4 kissing-loop reporter; higher = weaker reporter binding
Settings: Eterna round: R107
Description: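 RNA-MaP round R107: designed RNA switches with theophylline, tryptophan, arginine or FMN aptamers are transcribed on-chip within common flanks. They are titrated with a labelled K4 kissing-loop RNA reporter in RNA-MaP buffer (100 mM Tris pH 7.5, 80 mM KCl, 4 mM MgCl2), without ligand or with the indicated ligand. Median apparent KD per design.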

[1] = input ligand: theophylline 20 uM
[2] = input ligand: tryptophan 2.4 mM
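Note: bound reporter read as fluorescence of individual clusters on recovered sequencing chips by microscopy, with normalized cluster intensities fitted with a binding model.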

UUAGAGAUCUCAGGAUAUCAGUGAUGUUGGUGUAAAGAUCUGAGAUAGAAUUCUAUCUCAGAUCAAUGAGAAGGGAGAUCUCAUU [AK3.2 Exc FMN B]
apparent KD of K4 kissing-loop reporter (input ligand: FMN 200 uM): 338 nM | apparent KD of K4 kissing-loop reporter (input ligand: arginine 13.2 mM): 179 nM | apparent KD of K4 kissing-loop reporter (input ligand: none): 192 nM | apparent KD of K4 kissing-loop reporter [1]: 219 nM | apparent KD of K4 kissing-loop reporter [2]: 174 nM

ACACUUUACGUAGGAUAUGCGACGAGUGAUGUUCGUCAGGCGGCCUUAGAUUAAACAAGCCGCCUAGCAGAAGGACGGGCAGUGU [Qumatiri]
apparent KD of K4 kissing-loop reporter (input ligand: FMN 200 uM): 133 nM | apparent KD of K4 kissing-loop reporter (input ligand: arginine 13.2 mM): 155 nM | apparent KD of K4 kissing-loop reporter (input ligand: none): 201 nM | apparent KD of K4 kissing-loop reporter [1]: 154 nM | apparent KD of K4 kissing-loop reporter [2]: 159 nM

UGUAUGUGAUUUGAUACCAGACCAUCUUGUGAAUGAUGAGUGAUGUUUAUUAUGGUUUGGGUCCCUUGGCAGCAAAUCGCAUACU [KL-SSTheoB25]
apparent KD of K4 kissing-loop reporter (input ligand: FMN 200 uM): 926 nM | apparent KD of K4 kissing-loop reporter (input ligand: arginine 13.2 mM): 717 nM | apparent KD of K4 kissing-loop reporter (input ligand: none): 976 nM | apparent KD of K4 kissing-loop reporter [1]: 781 nM | apparent KD of K4 kissing-loop reporter [2]: 803 nM

GCUCGGGAGUGAUGUUCCAAGUGGUGUUAACGAGGACCGGUACGGCCGCCACUCGAUACGGCCGGGCCGUAGGAUAAACUGGAGC [Same State - Tryptophan A (Freestyle 13)]
apparent KD of K4 kissing-loop reporter (input ligand: FMN 200 uM): 193 nM | apparent KD of K4 kissing-loop reporter (input ligand: arginine 13.2 mM): 123 nM | apparent KD of K4 kissing-loop reporter (input ligand: none): 154 nM | apparent KD of K4 kissing-loop reporter [1]: 174 nM | apparent KD of K4 kissing-loop reporter [2]: 152 nM

GAUUCUGUUCGAAAGAACGGAAUCACGGAAGGAGCGAGAGAAAUCUCAGGUAGGUCGCCGAAUUUUUGAUAGUGAUGUUAUCAUU [Arginine A K4 2]
apparent KD of K4 kissing-loop reporter (input ligand: FMN 200 uM): 422 nM | apparent KD of K4 kissing-loop reporter (input ligand: arginine 13.2 mM): 353 nM | apparent KD of K4 kissing-loop reporter (input ligand: none): 388 nM | apparent KD of K4 kissing-loop reporter [1]: 408 nM | apparent KD of K4 kissing-loop reporter [2]: 426 nM

GCCGUAGAUGGAAGGAGCGAGUCCAAACCAUAUUGCUGAAAAUUCGAGUGAUGUUCGUAAGCUCAGGUAGGUCGCCAUCUACGGC
apparent KD of K4 kissing-loop reporter (input ligand: FMN 200 uM): 206 nM | apparent KD of K4 kissing-loop reporter (input ligand: arginine 13.2 mM): 184 nM | apparent KD of K4 kissing-loop reporter (input ligand: none): 209 nM | apparent KD of K4 kissing-loop reporter [1]: 161 nM | apparent KD of K4 kissing-loop reporter [2]: 187 nM

GCUCAGGAGUGAUGUUCCAAGUGAUGUUAACGAGGACCGGUACGGCCGCCACUCGAUACGGCCGGACCGUAGGAUAAACUAGAGC [Same State - Tryptophan A (Freestyle 9)]
apparent KD of K4 kissing-loop reporter (input ligand: FMN 200 uM): 200 nM | apparent KD of K4 kissing-loop reporter (input ligand: arginine 13.2 mM): 171 nM | apparent KD of K4 kissing-loop reporter (input ligand: none): 183 nM | apparent KD of K4 kissing-loop reporter [1]: 313 nM | apparent KD of K4 kissing-loop reporter [2]: 244 nM

UUUUAGGUAUCUGAUACCAGAGAAAAUAUAUGUAGUGAUGUUAUAUACAAAAUAAUUAAGCUCCCUUGGCAGCAGUUUUAAUUUU [AstrosExc-TheB#5]
apparent KD of K4 kissing-loop reporter (input ligand: FMN 200 uM): 872 nM | apparent KD of K4 kissing-loop reporter (input ligand: arginine 13.2 mM): 730 nM | apparent KD of K4 kissing-loop reporter (input ligand: none): 902 nM | apparent KD of K4 kissing-loop reporter [1]: 763 nM | apparent KD of K4 kissing-loop reporter [2]: 633 nM

UUUCGUUGAAGUGAUACCAGACUUGAAAGUGAUGUUUUCCAAUAAUUUAAAUUAUUAGCUGUCCCUUGGCAGCACAGUUUAUUUA [JR_ExcTheophyB_Sub007]
apparent KD of K4 kissing-loop reporter (input ligand: FMN 200 uM): 255 nM | apparent KD of K4 kissing-loop reporter (input ligand: arginine 13.2 mM): 371 nM | apparent KD of K4 kissing-loop reporter (input ligand: none): 327 nM | apparent KD of K4 kissing-loop reporter [1]: 443 nM | apparent KD of K4 kissing-loop reporter [2]: 208 nM

GCAUCCAUGGCAGGAUAUAGGUUCGUGGAGUGAUGUUCCAUAACCCGAGUGAUGUUCGUUAUCCACCUAGAAGGGCCAUGGAUGC [whbob_Ex_FMNB__2th211]
apparent KD of K4 kissing-loop reporter (input ligand: FMN 200 uM): 212 nM | apparent KD of K4 kissing-loop reporter (input ligand: arginine 13.2 mM): 204 nM | apparent KD of K4 kissing-loop reporter (input ligand: none): 218 nM | apparent KD of K4 kissing-loop reporter [1]: 215 nM | apparent KD of K4 kissing-loop reporter [2]: 184 nM

AAUUUAUAUUUGUUCUUCAAAUGUUCAGAAGGAGCGUGAAUUAUCACAGGUAGGUCGCUGGGCUAGUGAUGUUGGCUAUAUACUA [whbob_Ex_Arginine_A_2t126]
apparent KD of K4 kissing-loop reporter (input ligand: FMN 200 uM): 168 nM | apparent KD of K4 kissing-loop reporter (input ligand: arginine 13.2 mM): 195 nM | apparent KD of K4 kissing-loop reporter (input ligand: none): 195 nM | apparent KD of K4 kissing-loop reporter [1]: 211 nM | apparent KD of K4 kissing-loop reporter [2]: 137 nM

AGAGUUAUGCGAGGAUAUGCGGUUAGUACUCAAAGAGUACUAACAGCAGAGUGAUGUUCUGUGAAAGCAGAAGGUGCAUAACUCA [Omei KL FMN B SS B v10]
apparent KD of K4 kissing-loop reporter (input ligand: FMN 200 uM): 153 nM | apparent KD of K4 kissing-loop reporter (input ligand: arginine 13.2 mM): 1060 nM | apparent KD of K4 kissing-loop reporter (input ligand: none): 1040 nM | apparent KD of K4 kissing-loop reporter [1]: 1120 nM | apparent KD of K4 kissing-loop reporter [2]: 1320 nM

CCGGGCGGCUGAAGGAGCGGGCGGGCCCGAGUGAUGUUCGGGUGGGCCGUGAGGUCCGGUGCCCAGGUAGGUCGCGGUUCCGCCC [#2 Same State - Arginine B Attempt #10 (HarryS)]
apparent KD of K4 kissing-loop reporter (input ligand: FMN 200 uM): 200 nM | apparent KD of K4 kissing-loop reporter (input ligand: arginine 13.2 mM): 169 nM | apparent KD of K4 kissing-loop reporter (input ligand: none): 262 nM | apparent KD of K4 kissing-loop reporter [1]: 215 nM | apparent KD of K4 kissing-loop reporter [2]: 164 nM

GUAUCAGUGAUGUUGGUAGGCGAGCGGGAUACCAGCCAAGACUCAGGCCCUUGGCAGCCCACAUAUCCCACGUAGAUAGUAGCUC [Same State - Theophylline A (Freestyle 15)]
apparent KD of K4 kissing-loop reporter (input ligand: FMN 200 uM): 155 nM | apparent KD of K4 kissing-loop reporter (input ligand: arginine 13.2 mM): 95.6 nM | apparent KD of K4 kissing-loop reporter (input ligand: none): 149 nM | apparent KD of K4 kissing-loop reporter [1]: 139 nM | apparent KD of K4 kissing-loop reporter [2]: 133 nM

UGUCAUUGGUCGGCCGCCACUUCAAGGUCAAAGACCAAAGAGUGAUGUUCUUAGACGAAAGUCAGAAGGACCGGGACCGAUGACU [TrypBS 9 #SwitchBubble #K4Middle]
apparent KD of K4 kissing-loop reporter (input ligand: FMN 200 uM): 318 nM | apparent KD of K4 kissing-loop reporter (input ligand: arginine 13.2 mM): 144 nM | apparent KD of K4 kissing-loop reporter (input ligand: none): 204 nM | apparent KD of K4 kissing-loop reporter [1]: 245 nM | apparent KD of K4 kissing-loop reporter [2]: 727 nM

UGACUGGAUGGAAGGAGCGCUAAACUCCUAGUGAUGUUAGGGACACGAGACAAAGUCUCGAGGCAGGUAGGUCGCCAUCUAGUCU [FiskerMod 7 - Jieux - Same State - Arginine B]
apparent KD of K4 kissing-loop reporter (input ligand: FMN 200 uM): 225 nM | apparent KD of K4 kissing-loop reporter (input ligand: arginine 13.2 mM): 198 nM | apparent KD of K4 kissing-loop reporter (input ligand: none): 197 nM | apparent KD of K4 kissing-loop reporter [1]: 250 nM | apparent KD of K4 kissing-loop reporter [2]: 212 nM

AUUCAUUUCAGAGGAUAUCGCUGGAGAGUGAUGUUCUCCCAUAGUCAGUGAUGUUGGCUAGCUAUGCGAGAAGGCUGUGGGUGGA [Same State FMN B GF 28]
apparent KD of K4 kissing-loop reporter (input ligand: FMN 200 uM): 143 nM | apparent KD of K4 kissing-loop reporter (input ligand: arginine 13.2 mM): 396 nM | apparent KD of K4 kissing-loop reporter (input ligand: none): 397 nM | apparent KD of K4 kissing-loop reporter [1]: 356 nM | apparent KD of K4 kissing-loop reporter [2]: 384 nM

AGAGUUAUGCGAGGAUAUGCGGUUAGUACUCAAAGAGUACUAACGGCAGAGUGAUGUUCUGUGAAAGCAGAAGGUGCAUAACUCA [Omei KL FMN B SS B v9]
apparent KD of K4 kissing-loop reporter (input ligand: FMN 200 uM): 274 nM | apparent KD of K4 kissing-loop reporter (input ligand: arginine 13.2 mM): 523 nM | apparent KD of K4 kissing-loop reporter (input ligand: none): 1090 nM | apparent KD of K4 kissing-loop reporter [1]: 327 nM | apparent KD of K4 kissing-loop reporter [2]: 1360 nM

UUCAGGUGUUCGGCCGCCACUCCAGUGAUGUUGGAGUGGCUUCACAAGGACCAGGACAAUGUAAGGAGGACCGGGAAUAUCGCAG [Leerat]
apparent KD of K4 kissing-loop reporter (input ligand: FMN 200 uM): 143 nM | apparent KD of K4 kissing-loop reporter (input ligand: arginine 13.2 mM): 110 nM | apparent KD of K4 kissing-loop reporter (input ligand: none): 131 nM | apparent KD of K4 kissing-loop reporter [1]: 115 nM | apparent KD of K4 kissing-loop reporter [2]: 125 nM

GCCUUAUAUCGAGCUACAGCUCGAUUUGGUCGAGGACCGGUACGGCCGCCACUCGAAUGAUAGUGAUGUUAUCAUUAUGGCCUAA [JR_ExcTryptoA_Sub022]
apparent KD of K4 kissing-loop reporter (input ligand: FMN 200 uM): 185 nM | apparent KD of K4 kissing-loop reporter (input ligand: arginine 13.2 mM): 137 nM | apparent KD of K4 kissing-loop reporter (input ligand: none): 183 nM | apparent KD of K4 kissing-loop reporter [1]: 130 nM | apparent KD of K4 kissing-loop reporter [2]: 148 nM

AUUCGAUCAGUGAUGUUGAUCAAAGUCGAAGGAGCGGACGAAAGUCCAGGUAGGUCGCGACUACAAGGUGUUAAGACACCUCGAA [Spvincent t9 mod #OpenEnded]
apparent KD of K4 kissing-loop reporter (input ligand: FMN 200 uM): 246 nM | apparent KD of K4 kissing-loop reporter (input ligand: arginine 13.2 mM): 211 nM | apparent KD of K4 kissing-loop reporter (input ligand: none): 237 nM | apparent KD of K4 kissing-loop reporter [1]: 208 nM | apparent KD of K4 kissing-loop reporter [2]: 224 nM
